Test results from the Human Domainome abundance scans (Beltran et al. 2025).
± gives the uncertainty stated by the source.

B1: Probable E3 ubiquitin-protein ligase MID2, residues 191 to 235; numbered along this chain, Q9UJV3 (parent)
chain: RGITCLDHENEKVNMYCVSDDQLICALCKLVGRHRDHQVASLNDR

Variants of: B1
Assay: abundance fitness (aPCA) (normalised: wild type 0, dead -1); higher = more abundant; growth selection in yeast, the domain comes from the species named
Settings: Homo sapiens
RGITCLDHANEKVNMYCVSDDQLICALCKLVGRHRDHQVASLNDR [E9A] showed an abundance fitness of 0.098 ± 0.046. RGITCLDHFNEKVNMYCVSDDQLICALCKLVGRHRDHQVASLNDR [E9F] gave an abundance fitness of 0.1 ± 0.16. For RGITCLDHCNEKVNMYCVSDDQLICALCKLVGRHRDHQVASLNDR [E9C], the abundance fitness was 0.028 ± 0.07. RGITCLDHINEKVNMYCVSDDQLICALCKLVGRHRDHQVASLNDR [E9I] gave an abundance fitness of -0.128 ± 0.25. RGITCLDHDNEKVNMYCVSDDQLICALCKLVGRHRDHQVASLNDR [E9D] showed an abundance fitness of 0.017 ± 0.06. Work on RQITCLDHENEKVNMYCVSDDQLICALCKLVGRHRDHQVASLNDR [G2Q] yielded an abundance fitness of -0.181 ± 0.091. Variant RKITCLDHENEKVNMYCVSDDQLICALCKLVGRHRDHQVASLNDR [G2K] has an abundance fitness of 0.042 ± 0.25. Variant RSITCLDHENEKVNMYCVSDDQLICALCKLVGRHRDHQVASLNDR [G2S] has an abundance fitness of -0.069 ± 0.065. Work on RTITCLDHENEKVNMYCVSDDQLICALCKLVGRHRDHQVASLNDR [G2T] yielded an abundance fitness of -0.06 ± 0.086. For RVITCLDHENEKVNMYCVSDDQLICALCKLVGRHRDHQVASLNDR [G2V], the abundance fitness was -0.216 ± 0.061. For REITCLDHENEKVNMYCVSDDQLICALCKLVGRHRDHQVASLNDR [G2E], the abundance fitness was 0.115 ± 0.063. Variant RDITCLDHENEKVNMYCVSDDQLICALCKLVGRHRDHQVASLNDR [G2D] has an abundance fitness of 0.108 ± 0.085. With RLITCLDHENEKVNMYCVSDDQLICALCKLVGRHRDHQVASLNDR [G2L] the abundance fitness was -0.218 ± 0.061. RYITCLDHENEKVNMYCVSDDQLICALCKLVGRHRDHQVASLNDR [G2Y] gave an abundance fitness of 0.023 ± 0.12. RMITCLDHENEKVNMYCVSDDQLICALCKLVGRHRDHQVASLNDR [G2M] gave an abundance fitness of -0.081 ± 0.068. With RRITCLDHENEKVNMYCVSDDQLICALCKLVGRHRDHQVASLNDR [G2R] the abundance fitness was -0.033 ± 0.045. Work on RWITCLDHENEKVNMYCVSDDQLICALCKLVGRHRDHQVASLNDR [G2W] yielded an abundance fitness of -0.403 ± 0.057. For RPITCLDHENEKVNMYCVSDDQLICALCKLVGRHRDHQVASLNDR [G2P], the abundance fitness was -0.222 ± 0.089. With RCITCLDHENEKVNMYCVSDDQLICALCKLVGRHRDHQVASLNDR [G2C] the abundance fitness was -0.511 ± 0.089. Work on RIITCLDHENEKVNMYCVSDDQLICALCKLVGRHRDHQVASLNDR [G2I] yielded an abundance fitness of -0.522 ± 0.24. Work on RGITCGDHENEKVNMYCVSDDQLICALCKLVGRHRDHQVASLNDR [L6G] yielded an abundance fitness of 0.039 ± 0.042. RGITCRDHENEKVNMYCVSDDQLICALCKLVGRHRDHQVASLNDR [L6R] gave an abundance fitness of 0.103 ± 0.042. Variant RGITCIDHENEKVNMYCVSDDQLICALCKLVGRHRDHQVASLNDR [L6I] has an abundance fitness of 0.16 ± 0.13. With RGITCYDHENEKVNMYCVSDDQLICALCKLVGRHRDHQVASLNDR [L6Y] the abundance fitness was 0.064 ± 0.13. Work on RGITCVDHENEKVNMYCVSDDQLICALCKLVGRHRDHQVASLNDR [L6V] yielded an abundance fitness of 0.021 ± 0.045. For RGITCFDHENEKVNMYCVSDDQLICALCKLVGRHRDHQVASLNDR [L6F], the abundance fitness was -0.028 ± 0.07. For RGITCWDHENEKVNMYCVSDDQLICALCKLVGRHRDHQVASLNDR [L6W], the abundance fitness was -0.253 ± 0.055. In the case of RGITCKDHENEKVNMYCVSDDQLICALCKLVGRHRDHQVASLNDR [L6K], the abundance fitness is reported as 0.213 ± 0.072. With RGITCNDHENEKVNMYCVSDDQLICALCKLVGRHRDHQVASLNDR [L6N] the abundance fitness was -0.22 ± 0.26. RGITCMDHENEKVNMYCVSDDQLICALCKLVGRHRDHQVASLNDR [L6M] showed an abundance fitness of 0.072 ± 0.071. RGITCDDHENEKVNMYCVSDDQLICALCKLVGRHRDHQVASLNDR [L6D] gave an abundance fitness of 0.124 ± 0.099. In the case of RGITCQDHENEKVNMYCVSDDQLICALCKLVGRHRDHQVASLNDR [L6Q], the abundance fitness is reported as 0.176 ± 0.061. RGITCCDHENEKVNMYCVSDDQLICALCKLVGRHRDHQVASLNDR [L6C] showed an abundance fitness of 0.069 ± 0.055. For RGITCEDHENEKVNMYCVSDDQLICALCKLVGRHRDHQVASLNDR [L6E], the abundance fitness was 0.151 ± 0.049. Work on RGITCTDHENEKVNMYCVSDDQLICALCKLVGRHRDHQVASLNDR [L6T] yielded an abundance fitness of 0.14 ± 0.057. RGITCSDHENEKVNMYCVSDDQLICALCKLVGRHRDHQVASLNDR [L6S] gave an abundance fitness of 0.118 ± 0.051. For RGITCPDHENEKVNMYCVSDDQLICALCKLVGRHRDHQVASLNDR [L6P], the abundance fitness was 0.156 ± 0.058. Work on RGITCADHENEKVNMYCVSDDQLICALCKLVGRHRDHQVASLNDR [L6A] yielded an abundance fitness of 0.145 ± 0.046. In the case of RGLTCLDHENEKVNMYCVSDDQLICALCKLVGRHRDHQVASLNDR [I3L], the abundance fitness is reported as -0.167 ± 0.055. Variant RGRTCLDHENEKVNMYCVSDDQLICALCKLVGRHRDHQVASLNDR [I3R] has an abundance fitness of -0.079 ± 0.046. RGGTCLDHENEKVNMYCVSDDQLICALCKLVGRHRDHQVASLNDR [I3G] gave an abundance fitness of 0.043 ± 0.042. Work on RGSTCLDHENEKVNMYCVSDDQLICALCKLVGRHRDHQVASLNDR [I3S] yielded an abundance fitness of -0.081 ± 0.048. In the case of RGTTCLDHENEKVNMYCVSDDQLICALCKLVGRHRDHQVASLNDR [I3T], the abundance fitness is reported as 0.08 ± 0.06. Work on RGQTCLDHENEKVNMYCVSDDQLICALCKLVGRHRDHQVASLNDR [I3Q] yielded an abundance fitness of -0.181 ± 0.054. RGYTCLDHENEKVNMYCVSDDQLICALCKLVGRHRDHQVASLNDR [I3Y] gave an abundance fitness of 0.072 ± 0.12. Work on RGCTCLDHENEKVNMYCVSDDQLICALCKLVGRHRDHQVASLNDR [I3C] yielded an abundance fitness of -0.101 ± 0.089. For RGETCLDHENEKVNMYCVSDDQLICALCKLVGRHRDHQVASLNDR [I3E], the abundance fitness was 0.036 ± 0.057. For RGVTCLDHENEKVNMYCVSDDQLICALCKLVGRHRDHQVASLNDR [I3V], the abundance fitness was -0.188 ± 0.055. Variant RGNTCLDHENEKVNMYCVSDDQLICALCKLVGRHRDHQVASLNDR [I3N] has an abundance fitness of 0.162 ± 0.12. In the case of RGDTCLDHENEKVNMYCVSDDQLICALCKLVGRHRDHQVASLNDR [I3D], the abundance fitness is reported as 0.123 ± 0.1. RGMTCLDHENEKVNMYCVSDDQLICALCKLVGRHRDHQVASLNDR [I3M] gave an abundance fitness of 0.111 ± 0.066. With RGHTCLDHENEKVNMYCVSDDQLICALCKLVGRHRDHQVASLNDR [I3H] the abundance fitness was -0.195 ± 0.26. With RGWTCLDHENEKVNMYCVSDDQLICALCKLVGRHRDHQVASLNDR [I3W] the abundance fitness was -0.229 ± 0.056. With RGIICLDHENEKVNMYCVSDDQLICALCKLVGRHRDHQVASLNDR [T4I] the abundance fitness was 0.032 ± 0.37. RGIFCLDHENEKVNMYCVSDDQLICALCKLVGRHRDHQVASLNDR [T4F] showed an abundance fitness of 0.001 ± 0.14. In the case of RGIYCLDHENEKVNMYCVSDDQLICALCKLVGRHRDHQVASLNDR [T4Y], the abundance fitness is reported as 0.133 ± 0.12. RGILCLDHENEKVNMYCVSDDQLICALCKLVGRHRDHQVASLNDR [T4L] gave an abundance fitness of -0.376 ± 0.067.
